# Measured values reported in paper PMC4907068, “Phosphatase ABI1 and okadaic acid-sensitive phosphoprotein phosphatases inhibit salt stress-activated SnRK2.4 kinase” (BMC Plant Biology, 2016).
# T1: GST-fused ABI1 (Arabidopsis thaliana, UniProt P49597 1-434)
# T1 construct: ABI1, PP2C clade A phosphatase, Arabidopsis thaliana, TAIR At4g26080; also called GST-ABI1; recombinant ABI1; not shown: GST, N-terminal, kept
# T1 sequence (looked up): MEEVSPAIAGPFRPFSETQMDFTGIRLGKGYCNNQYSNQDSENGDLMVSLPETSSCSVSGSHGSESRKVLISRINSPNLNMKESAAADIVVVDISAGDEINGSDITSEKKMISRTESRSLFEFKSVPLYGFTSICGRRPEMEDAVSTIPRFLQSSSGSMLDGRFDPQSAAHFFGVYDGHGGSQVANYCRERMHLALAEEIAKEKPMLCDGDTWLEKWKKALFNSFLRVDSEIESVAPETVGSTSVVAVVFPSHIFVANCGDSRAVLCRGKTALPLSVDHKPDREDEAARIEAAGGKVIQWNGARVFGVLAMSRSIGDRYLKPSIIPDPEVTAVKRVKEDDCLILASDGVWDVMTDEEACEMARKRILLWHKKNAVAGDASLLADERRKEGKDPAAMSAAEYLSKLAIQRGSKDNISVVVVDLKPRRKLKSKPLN
# B1: recombinant SnRK2.4 (enzyme, Arabidopsis thaliana, UniProt P43291 1-363, looked up)
# chain: MDKYELVKDIGAGNFGVARLMKVKNSKELVAMKYIERGPKIDENVAREIINHRSLRHPNIIRFKEVVLTPTHLAIAMEYAAGGELFERICSAGRFSEDEARYFFQQLISGVSYCHAMQICHRDLKLENTLLDGSPAPRLKICDFGYSKSSLLHSRPKSTVGTPAYIAPEVLSRREYDGKMADVWSCGVTLYVMLVGAYPFEDQEDPKNFRKTIQKIMAVQYKIPDYVHISQDCKNLLSRIFVANSLKRITIAEIKKHSWFLKNLPRELTETAQAAYFKKENPTFSLQTVEEIMKIVADAKTPPPVSRSIGGFGWGGNGDADGKEEDAEDVEEEEEEVEEEEDDEDEYDKTVKEVHASGEVRIS
# notes: SnRK2.4, SNF1-related protein kinase 2 of group 1, Arabidopsis thaliana, TAIR At1g10940
# Molecular target: T1, GST-fused ABI1
# Test: pull-down; GST-ABI1 or GST bound to Glutathione-Sepharose 4B beads, incubated with 10 ug recombinant SnRK2.4; 50 mM Tris-HCl pH 8.0, 50 mM NaCl, 0.01 % Triton X-100, 40 mM DTT; 45 min at RT, 5 washes; immunoblot with anti-SnRK2.4/SnRK2.10
# Conditions: both partners purified
binder,measurement,value
B1,binding result,binds
